Changes are numbered by the printed parent chain. In names and notes the source's numbering stands. Where two headings read alike, the source gives them in different places. One block for each binder: values may come before it.
Legend:
[1] = molecular target: T1, Human LIGHT stably expressed on EL4 cells (EL4-LIGHT) (human, UniProt O43557 1-240); test: flow cytometry, EL4-LIGHT cells
T1 construct: whole, on cells; also called membrane LIGHT

[2] = molecular target: LIGHT without residues 81-84, stably expressed on EL4 cells (EL4-NC-LIGHT); test: cell-based or functional assay
[3] = molecular target: T1, Human LIGHT stably expressed on EL4 …; test: flow cytometry, against F19 and F23
[4] = molecular target: T1, Human LIGHT stably expressed on EL4 …; test: flow cytometry, EL4-LIGHT cells; remark: listed apart in the source
Protocol: The EC50 of the 7 mAbs were calculated from binding to EL4-LIGHT cells (FIG. 1). […] Non-linear regression analysis was performed to determine the functional binding affinity measurement or EC50 for each mAb. A range of functional affinities was observed.

[5] = molecular target: Full length LIGHT G188A on HEK293FF cells (Homo sapiens (Human), UniProt O43557 1-240); test: flow cytometry, HEK293FF, mAb at EC50
Full length LIGHT G188A on HEK293FF cells, sequence (O43557 whole entry G188A): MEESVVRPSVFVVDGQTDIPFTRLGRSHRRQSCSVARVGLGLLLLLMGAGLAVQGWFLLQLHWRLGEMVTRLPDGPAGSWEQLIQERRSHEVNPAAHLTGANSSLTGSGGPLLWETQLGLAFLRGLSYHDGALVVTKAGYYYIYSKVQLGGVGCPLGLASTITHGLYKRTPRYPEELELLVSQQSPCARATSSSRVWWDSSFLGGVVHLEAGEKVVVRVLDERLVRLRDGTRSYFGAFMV
Protocol: (§1) The day of transfection the cells were seeded in a 24-well plate at 0.6×10⁶ cells/well. Lipofectamine 2000 (ThermoFisher scientific), 3 ul, was mixed with 50 μl OptiMEM medium (GIBCO) and then added to 50 μl Opti-MEM medium containing 3 ug plasmid DNA and incubated for 20 min at RT to form DNA-Lipofectamine 2000 complexes which were then added to the HEK293FF cells and incubated at 37° C., 5% CO₂ for 24 hours. For each construct, in duplicate, 0.60×10⁶ cells/well were used in a 96 well round bottom plate. Cells were centrifuged for 3 minutes at 300×g at 4° C., the supernatant discarded and the cells washed with 150 μl FACS buffer (0.5% FBS in phosphate buffered saline). This process was repeated 3 times. […] The wells were washed 3 times as above and 50 μl/well of goat anti-human IgG FITC (1:1500 dilution in FACS buffer, SIGMA F9512-2ML) or goat anti-mouse APC (1/500 dilution in FACS buffer, BDBioscience 550826), as appropriate, was added to the wells and incubated for 30 min at 4° C. protected from the light, with shaking. The cells were then washed as above, resuspended in 100 μl of FACS buffer and binding of the antibodies to the constructs was measured using flow cytometry and a total of 10,000 cells were acquired for each sample. Controls of buffer and secondary antibody only as well as HEK293FF non transfected cells were also used.

[6] = molecular target: Full length LIGHT R189A on HEK293FF cells (Homo sapiens (Human), UniProt O43557 1-240); test: flow cytometry, HEK293FF, mAb at EC50
Full length LIGHT R189A on HEK293FF cells, sequence (O43557 whole entry R189A): as the sequence (O43557 whole entry G188A) above, with A188G, R189A counted along it
Protocol: as §1

[7] = molecular target: Full length LIGHT A190S on HEK293FF cells (Homo sapiens (Human), UniProt O43557 1-240); test: flow cytometry, HEK293FF, mAb at EC50
Full length LIGHT A190S on HEK293FF cells, sequence (O43557 whole entry A190S): as the sequence (O43557 whole entry G188A) above, with A188G, A190S counted along it
Protocol: as §1

[8] = molecular target: Full length LIGHT T191A on HEK293FF cells (Homo sapiens (Human), UniProt O43557 1-240); test: flow cytometry, HEK293FF, mAb at EC50
Full length LIGHT T191A on HEK293FF cells, sequence (O43557 whole entry T191A): as the sequence (O43557 whole entry G188A) above, with A188G, T191A counted along it
Protocol: as §1

[9] = molecular target: Full length LIGHT S192A on HEK293FF cells (Homo sapiens (Human), UniProt O43557 1-240); test: flow cytometry, HEK293FF, mAb at EC50
Full length LIGHT S192A on HEK293FF cells, sequence (O43557 whole entry S192A): as the sequence (O43557 whole entry G188A) above, with A188G, S192A counted along it
Protocol: as §1

[10] = molecular target: Full length LIGHT S193A on HEK293FF cells (Homo sapiens (Human), UniProt O43557 1-240); test: flow cytometry, HEK293FF, mAb at EC50
Protocol: as §1

[11] = molecular target: Full length LIGHT S194A on HEK293FF cells (Homo sapiens (Human), UniProt O43557 1-240); test: flow cytometry, HEK293FF, mAb at EC50
Full length LIGHT S194A on HEK293FF cells, sequence (O43557 whole entry S194A): as the sequence (O43557 whole entry G188A) above, with A188G, S194A counted along it
Protocol: as §1

[12] = molecular target: Full length LIGHT R195A on HEK293FF cells (Homo sapiens (Human), UniProt O43557 1-240); test: flow cytometry, HEK293FF, mAb at EC50
Full length LIGHT R195A on HEK293FF cells, sequence (O43557 whole entry R195A): as the sequence (O43557 whole entry G188A) above, with A188G, R195A counted along it
Protocol: as §1

[13] = molecular target: Full length LIGHT V196A on HEK293FF cells (Homo sapiens (Human), UniProt O43557 1-240); test: flow cytometry, HEK293FF, mAb at EC50
Protocol: as §1

[14] = molecular target: Full length LIGHT W197A on HEK293FF cells (Homo sapiens (Human), UniProt O43557 1-240); test: flow cytometry, HEK293FF, mAb at EC50
Full length LIGHT W197A on HEK293FF cells, sequence (O43557 whole entry W197A): as the sequence (O43557 whole entry G188A) above, with A188G, W197A counted along it
Protocol: as §1

[15] = molecular target: Full length LIGHT W198A on HEK293FF cells (Homo sapiens (Human), UniProt O43557 1-240); test: flow cytometry, HEK293FF, mAb at EC50
Full length LIGHT W198A on HEK293FF cells, sequence (O43557 whole entry W198A): as the sequence (O43557 whole entry G188A) above, with A188G, W198A counted along it
Protocol: as §1

[16] = molecular target: T2, Human LIGHT-32L, on II23 cells (human, UniProt O43557 1-240); test: flow cytometry on II23-LIGHT 32L cells, 4 ug mAb in 100 uL, goat anti-human Fc gamma-PE; signal as % of the commercial anti-LIGHT-PE
T2 construct: also called II23-LIGHT 32L
T2 chain: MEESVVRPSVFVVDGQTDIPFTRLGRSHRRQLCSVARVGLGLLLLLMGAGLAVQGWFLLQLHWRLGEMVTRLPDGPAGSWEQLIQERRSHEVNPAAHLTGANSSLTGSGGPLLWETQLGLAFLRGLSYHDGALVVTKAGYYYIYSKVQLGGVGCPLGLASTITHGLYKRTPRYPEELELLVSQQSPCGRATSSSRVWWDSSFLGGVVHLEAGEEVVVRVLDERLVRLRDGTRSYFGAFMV
Protocol: The cells were suspended at 1×10⁷ cells/ml and 100 uL aliquots were placed into wells of a 96-well plate, the cells spun down and washed in FACS buffer at 1800 rpm for 2 min. The cells were blocked with 1:100 dilution of anti-CD16/CD32 (eBioscience, San Diego, USA) in FACS buffer for 20 min at room temperature and then washed 1× in FACS buffer at 1800 rpm for 2 min. The cells were then resuspended in 100 uL FACS buffer+4 ug anti-membrane LIGHT mAbs or anti-LIGHT-PE (eBioscience, lot: E01621-1632) for 30 min in the dark at room temperature, followed by washing 1× in FACS buffer at 1800 rpm for 2 min and then resuspended in 100 uL FACS buffer plus 1:100 goat anti-human Fcγ-PE secondary antibody or no secondary antibody at 4° C. in the dark for 30 min. The cells were again washed 1× in FACS buffer at 1800 rpm for 2 min and fixed in 200 uL 2% paraformaldehyde overnight at 4° C. and read on a flow cytometer.

[17] = molecular target: T1, Human LIGHT stably expressed on EL4 …; test: flow cytometry competition on EL4-LIGHT cells, co-incubation 40 min 4 C; blocked ligand DcR3-Fc-AF647 0.8 ug/ml; displacement is partial
Protocol: (§2) EL4-LIGHT cells were co-incubated with Alexa Fluor 647 conjugated DcR3-Fc (DcR3-Fc-AF647; 0.8 μg/ml) and graded concentrations (31 μg/ml to 128 μg/ml) of anti-membrane LIGHT antibodies (3B04, 03D12 and 02B111) for 40 min at 4° C. A control, of a mAb that binds both soluble and membrane LIGHT was included (F19 from EP2292663). The samples were washed three times and flow cytometry analysis was performed. Specific mean fluorescence intensity (MFI) obtained from the binding of DcR3-Fc-AF647 to LIGHT on EL4 cells were used to determine the levels of competition binding.

[18] = molecular target: T1, Human LIGHT stably expressed on EL4 …; test: flow cytometry competition on EL4-LIGHT cells, co-incubation 40 min 4 C; blocked ligand DcR3-Fc-AF647 0.8 ug/ml; same IC50 as 0.031ug/ml, second unit printed
Protocol: as §2

T1 sequence (O43557 whole entry): as the sequence (O43557 whole entry G188A) above, with A188G counted along it

EC50 [1]: 0.32 nM
B1: 3B04_var3 (antibody, V domains shown)
VH: QVQLVQSGAEVKKPGASVKVSCKASGYTFTDYEMHWVRQAPGQGLEWMGEIDPETGDTAYAQKFQGRVTLTADKSTSTAYMEFSSLRSEDTAVYYSCRETDYFFDYWGQGTLVTVSS
VL: DIQMTQSPSSLSASVGDRVTITCGASENIYGALNWYQRKQGKAPQLLIYGATNLADGVSSRFSGSGSGRDYTLTISSLQPEDFATYYCQNVLTTPWTFGQGTKLEIKR
notes: Human IgG4 (S241P, L248E, Kabat); also called 3B04VH3VK1

EC50 [1]: 0.37 nM
B2: 3B04_var11 (antibody, V domains shown)
VH: B1 VH
VL: B1 VL with R38Q, Q40P, Q45K, S59P
notes: Human IgG4 (S241P, L248E, Kabat); also called 3B04VH3VK3

EC50 [1]: 0.23 nM
B3: 3B04_var7 (antibody, V domains shown)
VH: B1 VH
VL: B1 VL with Q45K, S59P
notes: Human IgG4 (S241P, L248E, Kabat); also called 3B04VH3VK2

IC50, inhibition of IL-8 secretion, HT-29 + EL4-NC-LIGHT cells [2]: 2 nM
binding ratio, mAb to LIGHT trimer [3]: 1 mAb per LIGHT trimer
EC50 [4]: 0.133 nM
% of WT binding [5]: 5%
% of WT binding [6]: 0%
% of WT binding [7]: 47%
% of WT binding [8]: 4%
% of WT binding [9]: 41%
% of WT binding [10]: 0%
% of WT binding [11]: 1%
% of WT binding [12]: 15%
% of WT binding [13]: 77%
% of WT binding [14]: 1%
% of WT binding [15]: 82%
binding result [16]: binds
B4: 3A07 chimeric IgG4 mAb (antibody, V domains shown)
VH: QVQLQQSGAELVRPGAPVTLSCKASDYTFTDSEIHWVKQTPVHGLEWIGEIDPETGGTAYNQKFKGKATLTADKSSSTAYMELRSLTSEDSAVYYCSRETDYFFDYWGQGTTLTVSS
VL: ENVLTQSPAIMSASPGEKVTMTCSASSSVSYMYWYQQRPGSSPRLLIYDTSNLASGVPVRFSGSGSGTSYSLTISRMEAEDAATYYCQQWSSYPLTFGSGTKLEIK
notes: Chimeric human IgG4 (S-to-P, L-to-E) with human CL, as m1; also called Parental 3A07

IC50, inhibition of IL-8 secretion, HT-29 + EL4-NC-LIGHT cells [2]: 1.9 nM
binding ratio, mAb to LIGHT trimer [3]: 1 mAb per LIGHT trimer
EC50 [4]: 0.118 nM
% of WT binding [5]: 3%
% of WT binding [6]: 0%
% of WT binding [7]: 40%
% of WT binding [8]: 3%
% of WT binding [9]: 35%
% of WT binding [10]: 0%
% of WT binding [11]: 0%
% of WT binding [12]: 6%
% of WT binding [13]: 78%
% of WT binding [14]: 0%
% of WT binding [15]: 86%
binding result [16]: binds
B5: 3C10 chimeric IgG4 mAb (antibody, V domains shown)
VH: B4 VH with Q1E, P17S
VL: B4 VL with E1D, N2V, L4M, S7T, R38K, S99A, I105L
notes: Chimeric human IgG4 (S-to-P, L-to-E) with human CL, as m1; also called Parental 3C10

IC50, inhibition of IL-8 secretion, HT-29 + EL4-NC-LIGHT cells [2]: 1.8 nM
binding ratio, mAb to LIGHT trimer [3]: 1 mAb per LIGHT trimer
EC50 [4]: 2.73 nM
% of WT binding [5]: 44%
% of WT binding [6]: 2%
% of WT binding [7]: 93%
% of WT binding [8]: 22%
% of WT binding [9]: 122%
% of WT binding [10]: 0%
% of WT binding [11]: 3%
% of WT binding [12]: 43%
% of WT binding [13]: 99%
% of WT binding [14]: 0%
% of WT binding [15]: 83%
binding result [16]: binds
B6: 2E08 chimeric IgG4 mAb (antibody, V domains shown)
VH: QVQMKESGAELVRPGVSVKISCKGSGYTFTDYAIHWVKQSHAKTLEWIGVISTYYGDASYNQKFKGKATMTVDKSSSTAYMELARLTSDDSAIYYCARSRGEYGNYDAMDYWGQGTSVTVSS
VL: DIVLTQSPASLAVSLGQRATISCKASQSVDYDGDSYMNWYQQKPGQPPKLLIYAASNLESGIPARFSGSGSGTDFTLNIHPVEEEDAATYYCQQSNEDPLTFGAGTKLELK
notes: Chimeric human IgG4 (S-to-P, L-to-E) with human CL, as m1; also called Parental 2E08

IC50, inhibition of IL-8 secretion, HT-29 + EL4-NC-LIGHT cells [2]: 0.6 nM
binding ratio, mAb to LIGHT trimer [3]: 1 mAb per LIGHT trimer
EC50 [4]: 0.083 nM
% of WT binding [5]: 3%
% of WT binding [6]: 0%
% of WT binding [7]: 52%
% of WT binding [8]: 1%
% of WT binding [9]: 96%
% of WT binding [10]: 0%
% of WT binding [11]: 0%
% of WT binding [12]: 78%
% of WT binding [13]: 73%
% of WT binding [14]: 0%
% of WT binding [15]: 77%
binding result [16]: binds
IC50 [17]: 0.031 µg/mL
IC50 [18]: 0.214 nM
B7: 2B11 chimeric IgG4 mAb (antibody, V domains shown)
VH: B6 VH with Q1E, M4L, K5V, T44S, D89E
VL: DIVLTQSPASLAVSLGQRATISCRASESVDSYGNSFMHWYQQKPGQPPKLLIYRASNLESGIPARFSGSGSRTDFTLTINPVEADDVATYYCQQSNEDPYTFGGGTKLEIK
notes: Chimeric human IgG4 (S-to-P, L-to-E) with human CL, as m1; Often misprinted 2B111; also called Parental 2B11; 2B111

From patent publication US20210284747A1 (CAPELLA BIOSCIENCE, published 2021)
